Results: patent US20020032314A1
Ends that are not written are not given here. * marks the point of attachment. 125I = [125I]*

Molecular target: NTP receptor on human neutrophils (human)
Assay: saturation curve and Scatchard-like analysis of 125I-NTP-Y binding to human neutrophils

- NTP receptors per cell (receptors per cell): 3000
Binder: Y(125I)RRPESKATNATLDPR [125I-labeled NTP-Y (human Neutrophil Targeting Peptide synthesized with an N-terminal tyrosine)]
